Source: publication PMC7601328

Biological target: RNA polymerase holoenzyme (beta, beta', alpha, omega, sigma) (Escherichia coli) (UniProt P0A8V2+P0A8T7+P0A7Z4+P0A800+P00579)
Test: EMSA
Settings: 40 mM Hepes-KOH pH 8, 50 mM KCl, 10 mM Mg acetate, 0.5 mM DTT, 0.005% NP40, 50 uM ATP, 30 C; ~0.3 pmol DNA and 7 pmol RNAP in 200 uL; time course, heparin …

For “GTGCTGCGAAATCATCGGTGTAAATAGGGCTATATGCCGCGTCTTTTCTGGCTAATTTTATGAAAAGATATTTATTGGCGGCACAAAATAAAGAACAATTTTGAATTCCTTACATTCCTGGCTATTGCACAACTGAATTTAAGGCTCTATTATTACCTCAACAAACCACCCCAATATAAGTTTGAGATTACTACAATGAGCGAAGCACTTAAAATTCTGAA (double strand) [hns promoter fragment, 221 bp (-159 to +62)]”, the binding was “binds”.
